Experimental data as given in US20220332804A1 (CSL INNOVATION, published 2022).

Experiments:
Assay in all cases: SPR, antibody captured, C2 as analyte;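 also: biacore SPR at 37 °C, anti-C2 mAbs captured via goat anti-human IgG on CM5 chips, double-referenced sensorgrams fit to a 1:1 kinetic or steady-state model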
human C2 S428A = molecular target: T1, human C2 S428A (human, UniProt P06681 21-752)
T1 sequence: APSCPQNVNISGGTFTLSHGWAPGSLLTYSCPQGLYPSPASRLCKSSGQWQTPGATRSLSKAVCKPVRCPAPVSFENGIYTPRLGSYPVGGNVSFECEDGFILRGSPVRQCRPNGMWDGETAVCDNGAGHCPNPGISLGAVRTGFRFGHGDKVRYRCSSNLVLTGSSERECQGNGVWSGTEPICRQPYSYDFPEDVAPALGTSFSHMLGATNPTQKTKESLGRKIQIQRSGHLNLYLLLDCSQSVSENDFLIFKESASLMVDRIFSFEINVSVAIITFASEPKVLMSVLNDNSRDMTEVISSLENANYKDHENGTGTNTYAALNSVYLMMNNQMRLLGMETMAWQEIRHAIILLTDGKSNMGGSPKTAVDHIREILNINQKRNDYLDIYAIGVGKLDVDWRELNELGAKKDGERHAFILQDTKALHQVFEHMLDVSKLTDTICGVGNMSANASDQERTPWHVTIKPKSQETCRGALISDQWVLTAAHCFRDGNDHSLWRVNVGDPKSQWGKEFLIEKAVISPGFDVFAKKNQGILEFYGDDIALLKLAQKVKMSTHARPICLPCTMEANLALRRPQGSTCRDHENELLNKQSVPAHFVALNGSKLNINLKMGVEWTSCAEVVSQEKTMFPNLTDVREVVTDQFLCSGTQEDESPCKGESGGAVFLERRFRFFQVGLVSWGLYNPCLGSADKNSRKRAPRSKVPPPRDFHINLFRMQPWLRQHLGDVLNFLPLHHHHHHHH

human C2 D561A = molecular target: T2, human C2 D561A (human, UniProt P06681 21-752)
T2 sequence: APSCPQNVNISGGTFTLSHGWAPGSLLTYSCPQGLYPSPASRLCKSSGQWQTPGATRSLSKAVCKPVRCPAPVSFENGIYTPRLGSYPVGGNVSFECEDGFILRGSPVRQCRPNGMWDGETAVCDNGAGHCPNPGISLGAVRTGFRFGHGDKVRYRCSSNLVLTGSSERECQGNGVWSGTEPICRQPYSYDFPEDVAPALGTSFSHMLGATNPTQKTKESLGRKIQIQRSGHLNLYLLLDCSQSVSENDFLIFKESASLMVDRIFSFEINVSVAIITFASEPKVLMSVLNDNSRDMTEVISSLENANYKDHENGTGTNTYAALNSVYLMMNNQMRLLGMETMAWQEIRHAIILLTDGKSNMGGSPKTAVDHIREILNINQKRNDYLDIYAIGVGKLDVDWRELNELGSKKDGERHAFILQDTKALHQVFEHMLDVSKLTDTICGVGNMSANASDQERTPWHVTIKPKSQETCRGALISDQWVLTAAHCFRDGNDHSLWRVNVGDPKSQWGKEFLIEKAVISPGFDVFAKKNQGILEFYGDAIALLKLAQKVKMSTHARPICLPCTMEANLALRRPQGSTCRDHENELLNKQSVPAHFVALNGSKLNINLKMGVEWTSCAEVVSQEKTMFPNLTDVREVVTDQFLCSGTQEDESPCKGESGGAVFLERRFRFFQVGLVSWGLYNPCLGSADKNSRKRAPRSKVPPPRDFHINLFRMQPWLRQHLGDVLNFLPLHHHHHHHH

human C2 L439A = molecular target: T3, human C2 L439A (human, UniProt P06681 21-752)
T3 sequence: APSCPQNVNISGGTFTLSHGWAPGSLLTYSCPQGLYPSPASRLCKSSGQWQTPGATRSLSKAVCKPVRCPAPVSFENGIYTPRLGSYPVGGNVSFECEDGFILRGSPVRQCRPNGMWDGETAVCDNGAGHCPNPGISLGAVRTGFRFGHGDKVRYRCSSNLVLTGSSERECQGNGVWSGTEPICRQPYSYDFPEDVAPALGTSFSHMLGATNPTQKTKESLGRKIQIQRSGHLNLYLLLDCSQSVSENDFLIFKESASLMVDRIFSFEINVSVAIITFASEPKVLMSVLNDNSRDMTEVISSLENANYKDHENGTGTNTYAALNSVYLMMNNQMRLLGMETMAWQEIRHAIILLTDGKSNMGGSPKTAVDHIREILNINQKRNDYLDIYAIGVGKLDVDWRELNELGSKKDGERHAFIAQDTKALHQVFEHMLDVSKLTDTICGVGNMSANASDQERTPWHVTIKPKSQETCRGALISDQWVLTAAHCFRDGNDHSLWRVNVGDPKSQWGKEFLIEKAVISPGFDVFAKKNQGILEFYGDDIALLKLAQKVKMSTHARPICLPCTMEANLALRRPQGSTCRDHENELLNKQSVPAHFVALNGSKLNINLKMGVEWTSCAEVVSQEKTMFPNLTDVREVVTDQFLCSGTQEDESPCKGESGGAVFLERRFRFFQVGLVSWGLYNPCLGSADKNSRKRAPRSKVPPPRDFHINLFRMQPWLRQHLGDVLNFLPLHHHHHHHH

human C2 E433A = molecular target: T4, human C2 E433A (human, UniProt P06681 21-752)
T4 sequence: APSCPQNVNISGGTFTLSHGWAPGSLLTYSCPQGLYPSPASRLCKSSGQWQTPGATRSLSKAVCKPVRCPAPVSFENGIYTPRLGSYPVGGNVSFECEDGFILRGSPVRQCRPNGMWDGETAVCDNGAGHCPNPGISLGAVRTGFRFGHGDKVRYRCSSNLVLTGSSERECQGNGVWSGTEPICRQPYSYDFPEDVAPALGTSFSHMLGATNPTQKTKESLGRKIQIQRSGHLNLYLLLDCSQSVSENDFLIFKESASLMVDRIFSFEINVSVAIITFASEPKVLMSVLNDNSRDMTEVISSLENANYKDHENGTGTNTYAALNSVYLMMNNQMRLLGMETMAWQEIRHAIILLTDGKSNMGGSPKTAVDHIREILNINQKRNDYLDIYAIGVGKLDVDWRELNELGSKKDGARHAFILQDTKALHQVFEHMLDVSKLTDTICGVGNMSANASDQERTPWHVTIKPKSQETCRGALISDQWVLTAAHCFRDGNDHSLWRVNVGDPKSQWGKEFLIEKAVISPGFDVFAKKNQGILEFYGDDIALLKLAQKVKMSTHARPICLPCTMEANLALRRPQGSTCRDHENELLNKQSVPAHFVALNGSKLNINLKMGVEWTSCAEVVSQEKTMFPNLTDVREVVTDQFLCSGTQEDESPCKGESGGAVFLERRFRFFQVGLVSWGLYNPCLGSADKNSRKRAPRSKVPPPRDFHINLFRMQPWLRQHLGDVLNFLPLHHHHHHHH

B1: RF16-226 (antibody, human IgG4 S228P, lambda)
heavy: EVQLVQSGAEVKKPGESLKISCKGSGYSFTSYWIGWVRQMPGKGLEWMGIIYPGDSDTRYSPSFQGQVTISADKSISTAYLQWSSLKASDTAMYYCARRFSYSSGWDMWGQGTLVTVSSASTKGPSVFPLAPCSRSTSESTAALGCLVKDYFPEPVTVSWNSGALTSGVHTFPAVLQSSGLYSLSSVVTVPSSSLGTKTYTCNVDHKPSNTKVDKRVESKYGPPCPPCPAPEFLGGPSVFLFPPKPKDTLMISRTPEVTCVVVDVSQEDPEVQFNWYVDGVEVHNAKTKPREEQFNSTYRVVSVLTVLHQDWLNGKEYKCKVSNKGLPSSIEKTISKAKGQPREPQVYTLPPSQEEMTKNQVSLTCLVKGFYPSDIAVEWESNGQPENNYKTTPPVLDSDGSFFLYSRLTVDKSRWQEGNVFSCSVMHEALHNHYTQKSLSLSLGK
light: SYELTQPPSVSVSPGQTARITCSGDALTSKYVAWYQQKSGLAPLLVIYEDTRRPSGIPAKFSGSSSGSVATLTISGAHGDDEADYYCYSTDASGHQRVFGGGTKLTVLSQPKAAPSVTLFPPSSEELQANKATLVCLISDFYPGAVTVAWKADGSPVKAGVETTKPSKQSNNKYAASSYLSLTPEQWKSHRSYSCQVTHEGSTVEKTVAPTECS
notes: pH-dependent anti-C2 antibody from a phage display library; also called WT
- Kd (human C2 S428A): 18.8 nM
- Kd (human C2 D561A): 102 nM
- Kd (human C2 L439A): 118 nM
- Kd (human C2 E433A): 2.6 nM
